# Results reported in patent US20200369772A1 (ABBA THERAPEUTICS, published 2020).
# Positions count from the first letter of the chain named. In names and notes the source's numbering stands.
# T1: human PD-L2 (full-length, on cells) (human, UniProt Q9BQ51 20-273)
# T1 chain: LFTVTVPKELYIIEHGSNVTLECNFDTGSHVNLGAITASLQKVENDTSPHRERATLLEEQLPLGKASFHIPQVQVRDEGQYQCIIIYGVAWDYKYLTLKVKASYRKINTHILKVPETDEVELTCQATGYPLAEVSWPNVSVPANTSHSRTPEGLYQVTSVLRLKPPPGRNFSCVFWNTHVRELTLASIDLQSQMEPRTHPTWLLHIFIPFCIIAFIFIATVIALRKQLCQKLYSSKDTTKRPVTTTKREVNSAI
# T2: recombinant human PD-L2-Fc-biotin (human, UniProt Q9BQ51 20-220, biotin)
# T2 chain: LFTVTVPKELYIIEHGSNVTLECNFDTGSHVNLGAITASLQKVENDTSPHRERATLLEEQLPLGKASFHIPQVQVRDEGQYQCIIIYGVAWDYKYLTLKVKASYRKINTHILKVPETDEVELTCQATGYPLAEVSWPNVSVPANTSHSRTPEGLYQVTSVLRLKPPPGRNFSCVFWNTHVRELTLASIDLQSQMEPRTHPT
# T3: human PD-L2 (full-length, on cells) (human, UniProt Q9BQ51 20-273)
# T3 construct: whole, on cells; CHO-K1 cells stably expressing full-length human PD-L2; also endogenous on NCI-H226 and transfected in Jurkat cells; also called hPD-L2; CHO-K1/hPD-L2
# T3 sequence (looked up): T1 chain
# T4: mouse PD-L2 (full-length, on cells) (mouse, UniProt Q9WUL5 20-247)
# T4 construct: whole, on cells; HEK293 cells stably expressing full-length mouse PD-L2
# T4 sequence (looked up): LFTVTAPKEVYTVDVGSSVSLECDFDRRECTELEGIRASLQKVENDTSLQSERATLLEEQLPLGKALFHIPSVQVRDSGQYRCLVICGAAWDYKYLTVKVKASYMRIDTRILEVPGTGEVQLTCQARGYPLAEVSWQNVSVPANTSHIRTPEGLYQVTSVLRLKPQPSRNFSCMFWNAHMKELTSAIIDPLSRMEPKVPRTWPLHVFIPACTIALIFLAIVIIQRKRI
# B1: 10D1-G1 (antibody, V domains shown)
# VH: QVQLQESGPGLVKPSGTLSLTCAVSGGSISSSYWWSWVRQPPGKGLEWIGEIFHIGSTNYNPSLRSRVTISVVKSKNQFSLNLNSVTAADTAVYFCARVSGGYGYFSGMDVWGQGTTVTVSS
# VL: DIQMTQSPSSLSASVGDRVTITCRASQGIRNDLGWYQQKPGKAPKRLIYGASSLQSGVPSRFSGSGSGTEFTLTISSLQPEDFATYYCLQHNSYPRTFGQGTKVEIK
# notes: Both formats under this entry
# B2: 10A9-D2 (antibody, V domains shown)
# VH: QVQLQESGPGLVKPSETLSLTCAVSGGSISSSYWWSWVRQPPGKGLEWVGEVFHVGVTNYNPSLKSRVTISVDKSKNQFSLKLTSVTAADTAVYYCARVTGTTGYYHGLDVWGQGTTVTVFS
# VL: B1 VL with A43V, G50A, V58I, S93N
# notes: Both formats under this entry
# B3: 12A1-D4 (antibody, V domains shown)
# VH: QVQLQESGPGLVKPSGTLSLTCAVSGGSISSNNWWSWVRQPPGKGLEWIGEIFHVGSTNYNPSLKSRVTISVDKSKNQFSLKLSSLTAADTAVYYCARMVGATGHYYGMDVWGQGTTVTVSS
# VL: DIQLTQSPSFLSASVGDRVTITCRASQGISSSLAWYQQKPGKAPKFLIYAASTLQSGVPSRFSGSGSGTEFTLTISSLQPEDFATYYCQQLNSYPKSWTFGQGTKVEIK
# notes: Both formats under this entry
# B4: 7H5-C5 (antibody, V domains shown)
# VH: QVQLVESGGGLVKPGGSLRLSCAASGFSLSDYYMSWTRQAPGRGLEWVSFISSSGSTIYYVDSVKGRFTISRDHAKNSLYLQINSLRAEDTAVYYCARAQWLPDFDYWGQGTLVTVSS
# VL: QSALTQPPSASGSPGQSVTISCTGTSSDVSGYNYVSWYQHHPDKAPKLLIYEVNKRPSGVPARFSGSKSGNTASLTVSGLQAEDEADYYCTSFADNNNVVFGGGTKLTVLG
# notes: Both formats under this entry
# B5: 9A3-C7 (antibody, V domains shown)
# VH: B4 VH with T37I, F50Y, H74N, Y95H
# VL: B4 VL with S30G, D43G, A45V, L49M, N54S, A62D, V100G
# notes: Both formats under this entry
# B6: 19B3-B3 (antibody, V domains shown)
# VH: QVQLVQSGAEVKKPGASVKVSCMASGYTFTNYAIHWVRQAPGQRLEWMGWINTGLGKPKYSQMFQDRVTITRDTSASTASMELSGLRSDDTAVYYCARVGWELYFDYWGQGTLVTVSS
# VL: DIQMTQSPSTLSASVGDRVTITCRASQSISSLLAWYQQKPGKAPKLLIYKASSLESGVPSRFSGSGSGTEFTLTISSLQPDDFATYFCQQYNSYWTFGQGTKVEIK
# notes: Both formats under this entry
# B7: 2-19H2 (antibody, V domains shown)
# VH: B6 VH with M23K, M63L
# VL: B6 VL with S28T, L32W, K45N, F87Y, N92Y
# notes: VH of 19B3-B3 M23K.M63L.HC with VL of 2C4-E4; kappa; also called 2-H192
# Target: T1, human PD-L2 (full-length, on cells)
# Experiment: blocking of hPD-1 binding to CHO-K1/hPD-L2 cells
# Summary of the method: (§1)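 IC50 values were obtained with GraphPad Prism by non-linear curve fitting of flow cytometry data on PD-1 binding to PD-L2-expressing cells. For this, 1.5×10⁵ CHO-K1 cells stably carrying human PD-L2 were incubated for 30 min at 4° C with antibody in serial dilutions from 0.25 ng/ml to 4 μg/ml, then for 30 min at 4° C with 0.5 μg/ml recombinant human PD-1-mouse Fc. Detection used fluorochrome-conjugated anti-mouse IgG2a at 1:200 for 20 min at 4° C, with reference wells fixing 0% and 100% binding.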
row,IC50,Binder
1,0.4 nM,B1
2,0.34 nM,B2
3,0.37 nM,B3
4,0.93 nM,B4
5,1.2 nM,B5
6,0.4 nM,B6

# Target: T1, human PD-L2 (full-length, on cells)
# Experiment: FACS binding to CHO-K1 cells expressing human PD-L2
# Summary of the method: (§2)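 CHO-K1 cells stably expressing full-length human PD-L2 were stained for 20 min at 4° C with an APC-labelled anti-rat IgG or anti-human IgG Fc suited to the antibody format. Binding was read by flow cytometry on a BD FACSCalibur, and binding EC50 was obtained by non-linear fitting of percentage of maximal binding against concentration in GraphPad Prism.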
row,EC50,Binder
1,0.37 nM,B1
2,0.32 nM,B2
3,0.37 nM,B6

# Target: T1, human PD-L2 (full-length, on cells)
# Experiment: FACS, NCI-H226 cells
# Summary of the method: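 Flow cytometry on a BD FACSCalibur was used to measure binding to endogenous PD-L2 on NCI-H226 human lung squamous carcinoma cells, with 1.5×10⁵ cells used. Staining was done with APC-labelled goat anti-rat IgG at 1:2000 for 20 min at 4° C. The binding EC50 was obtained in GraphPad Prism by non-linear fitting of percentage of maximal binding against concentration.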
row,EC50,Binder
1,0.146 nM,B1
2,0.0776 nM,B2
3,0.0989 nM,B3
4,0.517 nM,B4
5,0.644 nM,B5
6,0.177 nM,B6

# Target: T2, recombinant human PD-L2-Fc-biotin
# Experiment: blocking of PD-L2 - PD-1 interaction (cell binding); low antigen concentration
# Summary of the method: (§3)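 Serially diluted antibody (0.03 ng/ml-0.5 μg/ml) was preincubated for 60 min at 4° C with recombinant human PD-L2-Fc-biotin (5 ng/ml, 100 pM) in 100 μl. The mixture was added for 30 min at 4° C to 1.5×10⁵ HEK293 cells stably expressing human PD-1. Bound ligand was detected with fluorochrome-conjugated streptavidin (20 min, 4° C) by flow cytometry, with unspecific IgG wells setting 0% and 100% binding. IC50 came from non-linear curve fitting in GraphPad Prism.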
row,IC50,Binder
1,0.0252 nM,B1
2,0.0103 nM,B2
3,0.0103 nM,B3
4,0.0311 nM,B4
5,0.0375 nM,B5
6,0.0248 nM,B6

# Target: T1, human PD-L2 (full-length, on cells)
# Experiment: FACS blocking of PD-1 binding to CHO-K1/hPD-L2; high antigen concentration
# Summary of the method: as §1
row,IC50,Binder
1,0.343 nM,B1
2,0.198 nM,B2
3,0.127 nM,B3
4,0.58 nM,B4
5,0.733 nM,B5
6,0.464 nM,B6

# Target: T3, human PD-L2 (full-length, on cells)
# Experiment: hybridoma supernatant screen on cells expressing human PD-L2
row,binding result,Binder
1,binds,B2
2,binds,B3
3,binds,B4
4,binds,B5
5,binds,B6

# Target: T1, human PD-L2 (full-length, on cells)
# Experiment: FACS binding to CHO-K1 cells expressing human PD-L2
# Remark: another data set of the same source
# Summary of the method: as §2
row,EC50,Binder
1,0.38 nM,B1
2,0.38 nM,B2
3,0.42 nM,B3
4,1.6 nM,B4
5,0.34 nM,B6

# Target: T5, human PD-L1 (full-length, on cells) (human, UniProt Q9NZQ7 19-290)
# T5 construct: whole, on cells; HEK293 cells stably expressing full-length human PD-L1
# T5 sequence (Q9NZQ7 19-290): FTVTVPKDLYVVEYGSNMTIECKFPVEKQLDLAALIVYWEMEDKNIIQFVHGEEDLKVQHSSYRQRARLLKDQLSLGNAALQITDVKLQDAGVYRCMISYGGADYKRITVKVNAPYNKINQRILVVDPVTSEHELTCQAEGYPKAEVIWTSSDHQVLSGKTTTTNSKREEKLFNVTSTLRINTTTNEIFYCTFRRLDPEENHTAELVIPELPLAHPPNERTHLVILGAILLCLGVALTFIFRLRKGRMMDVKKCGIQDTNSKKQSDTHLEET
# Experiment: FACS on HEK293 cells stably expressing full-length human PD-L1
# Procedure: (§4) The ability of anti-PD-L2 antibodies binding to mouse PD-L2, human PD-L1 or cyno PD-L2 was determined by FACS. HEK293 cells stably expressing full-length monkey PD-L2, mouse PD-L2 or human PD-L1 were established, subcloned and verified. For binding assay, 1.5×10⁵ cells in 100 μl of FACSwash buffer were incubated with individual anti-PD-L2 antibodies (0.5 μg/ml) for 30 min. After three times of washing, the cells were re-suspended in FACSwash buffer containing FITC-labelled goat-anti-rat IgG (Thermo Fisher, 1:1000) or APC-labelled goat-anti-ratIgG (Biolegend, Clone Poly4054) at a 1:2000 dilution for 20 min at 4° C., washed three times and subsequently subjected to FACS analysis. FACS data was analysed using FlowJo Software and depicted as histograms including secondary antibody only controls.
row,binding result,Binder
1,no binding (tested: 0.5 µg/ml),B1
2,no binding (tested: 0.5 µg/ml),B2
3,no binding (tested: 0.5 µg/ml),B3
4,no binding (tested: 0.5 µg/ml),B4
5,no binding (tested: 0.5 µg/ml),B5
6,no binding (tested: 0.5 µg/ml),B6

# Target: T4, mouse PD-L2 (full-length, on cells)
# Experiment: FACS on HEK293 cells stably expressing full-length mouse PD-L2
# Procedure: as §4
row,binding result,Binder
1,no binding (tested: 0.5 µg/ml),B1
2,no binding (tested: 0.5 µg/ml),B2
3,no binding (tested: 0.5 µg/ml),B3
4,no binding (tested: 0.5 µg/ml),B4
5,no binding (tested: 0.5 µg/ml),B5
6,no binding (tested: 0.5 µg/ml),B6

# Target: T3, human PD-L2 (full-length, on cells)
# Experiment: FACS binding on cells expressing human PD-L2 (per the examples)
row,binding result,Binder
1,binds,B1
2,binds,B7

# Target: T1, human PD-L2 (full-length, on cells)
# Experiment: FACS, CHO-K1 expressing human PD-L2
# Summary of the method: as §2
row,EC50,Binder
1,0.408 nM,B1
2,0.252 nM,B2
3,0.265 nM,B3
4,0.765 nM,B4
5,0.873 nM,B5
6,0.338 nM,B6

# Target: T2, recombinant human PD-L2-Fc-biotin
# Experiment: blocking of hPD-L2 binding to HEK293-hPD-1 cells
# Summary of the method: as §3
row,IC50,Binder
1,0.014 nM,B1
2,0.012 nM,B2
3,0.013 nM,B3
4,0.026 nM,B4
5,0.029 nM,B5
6,0.017 nM,B6
